Columns and labels:
Experiment in all cases: site-directed spin labelling EPR
[1] = molecular target: SET/TAF-Iβ D260C mutant, MTSL spin-labelled (UniProt Q01105-2 1-277, D260C, MTSL nitroxide spin label on Cys260)
[2] = molecular target: SET/TAF-Iβ D226C mutant, MTSL spin-labelled (UniProt Q01105-2 1-277, D226C, MTSL nitroxide spin label on Cys226)
[3] = molecular target: SET/TAF-Iβ E243C mutant, MTSL spin-labelled (UniProt Q01105-2 1-277, E243C, MTSL nitroxide spin label on Cys243)

Measured: binding result

B1: wild-type cytochrome c (natural protein)
chain: not shown
modifications: heme group (assembled by co-expressed yeast heme lyase); reduced state in ITC and EPR
binds: all assays above

From paper PMC11301353 (iScience, 2024)
